We go through two substances from paper doi:10.1101/543413.

Common to all, as to assay: MST
Test [1] concerns the target R663H human β-cardiac 25-hep HMM (UniProt P12883).
For test [2], the target named is R663H human β-cardiac sS1 (human) (UniProt P12883).
Test [3] has as its target WT human β-cardiac sS1 (short S1) (human) (UniProt P12883).

For “C0-C7 fragment of myosin binding protein-C (MyBP-C) (domain or fragment)”, in test [1], the Kd came to 0.9 µM.

On to “proximal S2 of human β-cardiac myosin (from UniProt P12883 1-1935) (domain or fragment)”, for which the Kd came out at 50 µM in test [2] and 67 µM in test [3].

Broadly, the Kd is the concentration at which binding is half-saturated. A high value points to a looser complex.
